Experimental data: patent US20030229203A1

Legend:
CCR1 = target: T1, CCR1 (UniProt P32246); assay: cell-based or functional assay
T1 sequence (looked up): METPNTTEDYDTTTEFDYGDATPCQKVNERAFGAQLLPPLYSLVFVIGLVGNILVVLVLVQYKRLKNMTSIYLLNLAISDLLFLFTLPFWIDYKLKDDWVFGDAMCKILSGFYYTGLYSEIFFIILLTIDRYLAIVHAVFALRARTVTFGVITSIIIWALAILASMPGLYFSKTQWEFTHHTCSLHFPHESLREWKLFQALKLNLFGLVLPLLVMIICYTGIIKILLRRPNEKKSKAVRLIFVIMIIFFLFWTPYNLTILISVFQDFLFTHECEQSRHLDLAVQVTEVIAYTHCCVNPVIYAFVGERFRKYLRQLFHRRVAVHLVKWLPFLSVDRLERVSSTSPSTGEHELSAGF

CCR5 (human) = CCR5 (human) (UniProt P51681); assay: cell-based or functional assay
Chain of CCR5 (human) (P51681 whole entry): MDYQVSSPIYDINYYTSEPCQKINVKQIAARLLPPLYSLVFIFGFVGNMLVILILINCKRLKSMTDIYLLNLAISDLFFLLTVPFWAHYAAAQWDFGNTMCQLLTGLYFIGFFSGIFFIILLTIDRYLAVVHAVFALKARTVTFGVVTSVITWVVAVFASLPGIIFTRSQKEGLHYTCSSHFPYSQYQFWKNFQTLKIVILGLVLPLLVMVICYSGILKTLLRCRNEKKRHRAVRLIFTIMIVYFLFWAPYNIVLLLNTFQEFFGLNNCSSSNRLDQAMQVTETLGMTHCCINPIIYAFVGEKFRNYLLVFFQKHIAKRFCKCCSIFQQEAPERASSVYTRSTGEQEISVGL

Chain of RANTES(3-68) (P13501 26-91 limits assumed): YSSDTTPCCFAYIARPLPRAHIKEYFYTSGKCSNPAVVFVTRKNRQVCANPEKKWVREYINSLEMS
Chain of RANTES(1-68) (P13501 24-91): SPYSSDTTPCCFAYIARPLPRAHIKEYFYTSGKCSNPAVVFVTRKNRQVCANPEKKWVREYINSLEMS

concentration at which the Ca2+ response saturated (Fura-2, HOS-CD4 cells expressing CCR1) (CCR1)	concentration sufficient to induce a maximal Ca2+ response (Fura-2, HEK-293 cells expressing CCR5) (CCR5 (human))	amount required to produce a detectable Ca2+ response, relative to RANTES(1-68) (Fura-2, HOS-CD4 cells expressing CCR1) (times that for RANTES(1-68)) (CCR1)	Substance
50 nM	10 nM	–	RANTES(1-68) (from UniProt P13501 24-91) (ligand)
> 200 nM	10 nM	100	RANTES(3-68) (from UniProt P13501 26-91) (ligand)
